# Data taken from patent US20230125550A1 (ARCELLX, published 2023).
# B1: SEQ ID NO: 611 (designed binder)
# chain: MGSWEEFEWRLDAIDERLWALGGSEAELATFEYEIAIFENELQQYKGKGNPEVEALDSEAYAIERELGAYRHN
# notes: D domain, on phage
# B2: SEQ ID NO: 612 (designed binder)
# chain: MGSWYEFFDRLDAIDERLWALGGSEAELAWFEAEIAEFEMELQGYKGKGNPEVEALDVEAHAIEMELFAYRHN
# notes: D domain, on phage
# B3: SEQ ID NO: 613 (designed binder)
# chain: MGSWYEFMGRLEAIDERLQALGGSEAELAWFEHEIAEFEWSLQWYKGKGNPEVEALRFEAGAIPWELWAYRHN
# notes: D domain, on phage
# B4: SEQ ID NO: 614 (designed binder)
# chain: MGSWVEFSNRLDAIWERLQALGGSEAELAYFEWEIAEFEWELQSYKGKGNPEVEALNAEADAIEWELEAYRHN
# notes: D domain, on phage
# B5: SEQ ID NO: 615 (designed binder)
# chain: MGSWEEFHMRLIAIDERLWALGGSEAELAGFEESIAYFESQLQDYKGKGNPEVEALDYEAHAIWRELYAYRHN
# notes: D domain, on phage
# B6: SEQ ID NO: 616 (designed binder)
# chain: MGSWWEFKYRLDAICFRLAALGGSEAELASFEDEIAYFEEDLQGYKGKGNPEVEALDYEALAIWDELAAYRHN
# notes: D domain, on phage
# B7: SEQ ID NO: 617 (designed binder)
# chain: MGSWDEFAMRLEAIQARLFALGGSEAELAIFEDEIAFFETMLQDYKGKGNPEVEALEYEAAAIEAELGAYRHN
# notes: D domain, on phage
# B8: SEQ ID NO: 618 (designed binder)
# chain: MGSWWEFNARLDAIEDRLMALGGSEAELAYFEDIIASFENILQQYKGKGNPEVEALWYEAYAIEKELNAYRHN
# notes: D domain, on phage
# B9: SEQ ID NO: 619 (designed binder)
# chain: MGSWIEFWNRLEAIEERLYALGGSEAELAYFEDEIAEFEIYLQQYKGKGNPEVEALKHEAEAINKELMAYRHN
# notes: D domain, on phage
# B10: SEQ ID NO: 620 (designed binder)
# chain: MGSWNEFVIRLFAIDDRLYALGGSEAELAWFEDEIATFEYELQRYKGKGNPEVEALEYEAEAIVSELFAYRHN
# notes: D domain, on phage
# B11: SEQ ID NO: 621 (designed binder)
# chain: MGSWYEFLARLYAIDERLWALGGSEAELATFEHWIADFEEQLQSYKGKGNPEVEALTDEAVAIGEELSAYRHN
# notes: D domain, on phage
# B12: SEQ ID NO: 622 (designed binder)
# chain: MGSWLEFETRLHAIDERLWALGGSEAELAEFEEHIAWFEEDLQFYKGKGNPEVEALDFEADAIGWELWAYRHN
# notes: D domain, on phage
# B13: SEQ ID NO: 623 (designed binder)
# chain: MGSWFEFETRLEAIDLRLWALGGSEAELATFEDVIAFFEDWLQFYKGKGNPEVEALKMEAWAIGEELHAYRHN
# notes: D domain, on phage
# B14: SEQ ID NO: 624 (designed binder)
# chain: MGSWHEFWQRLEAIEGRLWALGGSEAELADFESLIADFEEQLQEYKGKGNPEVEALMAEAEAIDNELRAYRHN
# notes: D domain, on phage
# B15: SEQ ID NO: 625 (designed binder)
# chain: MGSWYEFEQRLEAIEWRLGALGGSEAELATFEEDIADFEEWLQEYKGKGNPEVEALQYEAYAIAEELHAYRHN
# notes: D domain, on phage
# B16: SEQ ID NO: 626 (designed binder)
# chain: MGSWYEFENRLFAIEERLWALGGSEAELAWFEYEIANFEWGLQSYKGKGNPEVEALDNEAEAIDIELAAYRHN
# notes: D domain, on phage
# B17: SEQ ID NO 741 (designed binder)
# chain: MGSWHEFYDRLDAIYFRLWALGGSEAELAAFEKEIAAFESELQAYKGKGNPEVELLRLLAAEIRKELQAYRHN
# B18: SEQ ID NO 744 (designed binder)
# chain: MGSWVEFSGRLIAIDNRLWALGGSEAELAAFEKEIAAFESELQAYKGKGNPEVEYLRMWAAEIRYILQAYRHN
# B19: SEQ ID NO 742 (designed binder)
# chain: MGSWHEFITRLEAIDQRLWALGGSEAELAAFEKEIAAFESELQAYKGKGNPEVEYLRFWAAEIRFILQAYRHN
# B20: SEQ ID NO 743 (designed binder)
# chain: MGSWMEFFDRLVAIDERLWALGGSEAELAAFEKEIAAFESELQAYKGKGNPEVEYLRMWAAEIRFLLQAYRHN
# B21: SEQ ID NO 745 (designed binder)
# chain: MGSWVEFHHRLFAIDERLWALGGSEAELAAFEKEIAAFESELQAYKGKGNPEVEYLRMVAAEIRYILQAYRHN
# B22: SEQ ID NO 746 (designed binder)
# chain: MGSWHEFMERLIAIDGRLWALGGSEAELAAFEKEIAAFESELQAYKGKGNPEVEYLRFVAAFIRDVLQAYRHN
# B23: SEQ ID NO 747 (designed binder)
# chain: MGSWKEFIQRLDAIHYRLWALGGSEAELAAFEKEIAAFESELQAYKGKGNPEVEYLRFVAAFIRFELQAYRHN
# B24: SEQ ID NO 748 (designed binder)
# chain: MGSWSEFIFRLDAIHSRLQALGGSEAELAAFEKEIAAFESELQAYKGKGNPEVEYLRFIAAEIRLKLQAYRHN
# B25: SEQ ID NO 777 (designed binder)
# chain: MGSWTEFWHRLEAIDSRLWALGGSEAELAAFEKEIAAFESELQAYKGKGNPEVESLREHAAHIRVWLQAYRHN
# B26: SEQ ID NO 749 (designed binder)
# chain: MGSWFEFYDRLNAIDARLWALGGSEAELAAFEKEIAAFESELQAYKGKGNPEVENLRVHAAAIREWLQAYRHN
# B27: SEQ ID NO 758 (designed binder)
# chain: MGSWLEFYHRLNAIDSRLWALGGSEAELAAFEKEIAAFESELQAYKGKGNPEVESLRDHAAHIREWLQAYRHN
# B28: SEQ ID NO 766 (designed binder)
# chain: MGSWFEFYERLNAIDSRLWALGGSEAELAAFEKEIAAFESELQAYKGKGNPEVEKLRAHAASIRTWLQAYRHN
# B29: SEQ ID NO 767 (designed binder)
# chain: MGSWIEFYWRLEAIDQRLWALGGSEAELAAFEKEIAAFESELQAYKGKGNPEVEDLRVHAAAIRWWLQAYRHN
# B30: SEQ ID NO 768 (designed binder)
# chain: MGSWSEFVKRLDAIDQRLWALGGSEAELAAFEKEIAAFESELQAYKGKGNPEVESLRVHAAAIRAWLQAYRHN
# B31: SEQ ID NO 769 (designed binder)
# chain: MGSWEEFYYRLEAIDARLFALGGSEAELAAFEKEIAAFESELQAYKGKGNPEVEELRVHAAHIRDWLQAYRHN
# B32: SEQ ID NO 770 (designed binder)
# chain: MGSWVEFHYRLQAIDARLWALGGSEAELAAFEKEIAAFESELQAYKGKGNPEVEELRVHAAHIRKWLQAYRHN
# B33: SEQ ID NO 771 (designed binder)
# chain: MGSWVEFVGRLNAIDARLWALGGSEAELAAFEKEIAAFESELQAYKGKGNPEVEELRHHAAEIRNWLQAYRHN
# B34: SEQ ID NO 772 (designed binder)
# chain: MGSWNEFMDRLNAIDNRLWALGGSEAELAAFEKEIAAFESELQAYKGKGNPEVENLRKQAASIRLWLQAYRHN
# B35: SEQ ID NO 773 (designed binder)
# chain: MGSWNEFFQRLNAIDERLWALGGSEAELAAFEKEIAAFESELQAYKGKGNPEVEDLRQHAANIRWWLQAYRHN
# B36: SEQ ID NO 774 (designed binder)
# chain: MGSWYEFVVRLFAIDERLWALGGSEAELAAFEKEIAAFESELQAYKGKGNPEVESLREHAAHIRSWLQAYRHN
# B37: SEQ ID NO 775 (designed binder)
# chain: MGSWYEFYLRLDAIDHRLWALGGSEAELAAFEKEIAAFESELQAYKGKGNPEVEMLREHAAHIRKWLQAYRHN
# B38: SEQ ID NO 776 (designed binder)
# chain: MGSWYEFRARLLAIDERLWALGGSEAELAAFEKEIAAFESELQAYKGKGNPEVEHLREHAAHIRNFLQAYRHN
# Target: T1, recombinant human CD123-Fc (human, UniProt P26951 19-305)
# T1 construct: not shown: Fc part of CD123-Fc
# T1 sequence: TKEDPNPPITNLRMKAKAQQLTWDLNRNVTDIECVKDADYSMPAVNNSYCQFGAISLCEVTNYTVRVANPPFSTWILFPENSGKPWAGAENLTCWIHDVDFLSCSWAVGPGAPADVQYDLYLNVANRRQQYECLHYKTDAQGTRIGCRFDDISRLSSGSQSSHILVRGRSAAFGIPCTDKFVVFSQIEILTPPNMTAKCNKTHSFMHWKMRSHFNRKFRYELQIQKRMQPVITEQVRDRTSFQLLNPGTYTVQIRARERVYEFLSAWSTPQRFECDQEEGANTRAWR
# Assay: phage ELISA, captured CD123-Fc
# In short: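 Phage from BCMA panning colonies were rescued with VCSM13 helper phage and diluted 5× in blocking buffer. Plates coated with anti-human IgG1-Fc captured 5 nM target-Fc or IgG1-Fc, and binding was detected with HRP anti-M13. Ratio = A450 target/A450 IgG1-Fc, averaged over the clone's wells.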
row,Binder,ELISA_avg
1,B1,4.3 ratio A450 target/IgG1-Fc
2,B2,3.7 ratio A450 target/IgG1-Fc
3,B3,3.5 ratio A450 target/IgG1-Fc
4,B4,5.1 ratio A450 target/IgG1-Fc
5,B5,3.9 ratio A450 target/IgG1-Fc
6,B6,3.1 ratio A450 target/IgG1-Fc
7,B7,3.7 ratio A450 target/IgG1-Fc
8,B8,3.4 ratio A450 target/IgG1-Fc
9,B9,5.2 ratio A450 target/IgG1-Fc
10,B10,3.5 ratio A450 target/IgG1-Fc
11,B11,4.5 ratio A450 target/IgG1-Fc
12,B12,4.6 ratio A450 target/IgG1-Fc
13,B13,6.6 ratio A450 target/IgG1-Fc
14,B14,7 ratio A450 target/IgG1-Fc
15,B15,4.4 ratio A450 target/IgG1-Fc
16,B16,3.3 ratio A450 target/IgG1-Fc

# Target: T2, AFP p26 (human, UniProt P02771 381-609)
# T2 construct: The construct used is not described
# T2 sequence: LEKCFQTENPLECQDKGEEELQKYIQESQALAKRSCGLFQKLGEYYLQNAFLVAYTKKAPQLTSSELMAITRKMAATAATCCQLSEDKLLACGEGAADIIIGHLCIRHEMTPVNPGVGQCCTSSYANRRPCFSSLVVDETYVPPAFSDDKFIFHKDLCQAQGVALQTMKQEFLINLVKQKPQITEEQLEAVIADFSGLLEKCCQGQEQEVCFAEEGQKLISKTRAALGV
# Assay: phage ELISA, A450 target/A450 IgG1-Fc
# In short: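 Individual phagemid colonies picked from panning output were rescued in 96-well format using VCSM13 helper phage. Plates received 1.3 microg/ml goat anti-human IgG1-Fc antibody, followed by 5 nM recombinant human target or IgG1-Fc, and then 50 microl of phage diluted 5× in ELISA blocking buffer. An HRP-conjugated anti-M13 antibody detected binding at 450 nm. For each clone, the ELISA ratio is the absorbance with target divided by that with IgG1-Fc, averaged over every screened well containing the clone.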
row,Binder,ELISA_avg
1,B17,9.6 ratio
2,B18,5.28 ratio
3,B19,16.9 ratio
4,B20,18.6 ratio
5,B21,21.4 ratio
6,B22,17.9 ratio
7,B23,18.4 ratio
8,B24,28.3 ratio
9,B25,13.2 ratio
10,B26,5.92 ratio
11,B27,19.2 ratio
12,B28,27.1 ratio
13,B29,9.4 ratio
14,B30,27 ratio
15,B31,30.3 ratio
16,B32,14.8 ratio
17,B33,26 ratio
18,B34,10 ratio
19,B35,28.7 ratio
20,B36,18.2 ratio
21,B37,16 ratio
22,B38,20.9 ratio
